Test results: patent US20250144228A1 (CHILDREN S MEDICAL CENTER, published 2025)

T1: P. falciparum MSP-1 subunit p83 (plate-bound, isolated) (Plasmodium falciparum, UniProt Q8I0U8 20-722)
T1 construct: domain: p83
T1 sequence: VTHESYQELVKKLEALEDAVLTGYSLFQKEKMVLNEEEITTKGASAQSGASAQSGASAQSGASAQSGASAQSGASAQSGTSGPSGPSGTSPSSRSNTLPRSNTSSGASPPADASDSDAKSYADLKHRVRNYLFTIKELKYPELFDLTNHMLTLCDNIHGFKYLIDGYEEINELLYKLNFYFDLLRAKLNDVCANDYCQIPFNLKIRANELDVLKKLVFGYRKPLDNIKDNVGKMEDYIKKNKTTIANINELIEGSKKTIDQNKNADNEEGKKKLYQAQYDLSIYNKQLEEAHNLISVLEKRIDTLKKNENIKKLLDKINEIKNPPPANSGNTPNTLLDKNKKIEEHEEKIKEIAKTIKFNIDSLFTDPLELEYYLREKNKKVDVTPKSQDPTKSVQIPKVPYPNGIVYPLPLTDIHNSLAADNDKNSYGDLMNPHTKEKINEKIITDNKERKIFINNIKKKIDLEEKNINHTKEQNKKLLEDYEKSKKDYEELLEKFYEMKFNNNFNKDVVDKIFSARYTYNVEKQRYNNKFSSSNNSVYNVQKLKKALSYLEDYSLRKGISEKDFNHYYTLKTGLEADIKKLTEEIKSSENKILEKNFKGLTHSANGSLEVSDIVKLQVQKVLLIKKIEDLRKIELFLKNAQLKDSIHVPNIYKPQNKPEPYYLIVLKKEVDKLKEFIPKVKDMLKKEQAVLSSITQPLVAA

T2: P. falciparum MSP-1 subunit p38 (plate-bound, isolated) (Plasmodium falciparum, UniProt Q8I0U8 911-1326)
T2 construct: domain: p38
T2 sequence: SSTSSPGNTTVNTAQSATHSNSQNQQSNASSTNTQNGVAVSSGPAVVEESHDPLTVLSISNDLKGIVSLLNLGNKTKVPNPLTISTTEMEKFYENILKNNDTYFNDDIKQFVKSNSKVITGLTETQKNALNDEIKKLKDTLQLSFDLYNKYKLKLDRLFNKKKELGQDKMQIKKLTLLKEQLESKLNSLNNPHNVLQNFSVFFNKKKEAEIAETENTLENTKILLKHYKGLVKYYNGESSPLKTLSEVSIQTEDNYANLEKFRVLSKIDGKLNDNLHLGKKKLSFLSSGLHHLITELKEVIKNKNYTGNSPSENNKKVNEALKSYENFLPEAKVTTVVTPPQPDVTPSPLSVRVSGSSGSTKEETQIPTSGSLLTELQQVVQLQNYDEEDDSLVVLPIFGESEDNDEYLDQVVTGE

T3: MICB expressed on transfected B16F10 melanoma cells (human, UniProt Q29980 23-383)
T3 construct: whole, on cells; also called MICB-transfected cells
T3 sequence (looked up): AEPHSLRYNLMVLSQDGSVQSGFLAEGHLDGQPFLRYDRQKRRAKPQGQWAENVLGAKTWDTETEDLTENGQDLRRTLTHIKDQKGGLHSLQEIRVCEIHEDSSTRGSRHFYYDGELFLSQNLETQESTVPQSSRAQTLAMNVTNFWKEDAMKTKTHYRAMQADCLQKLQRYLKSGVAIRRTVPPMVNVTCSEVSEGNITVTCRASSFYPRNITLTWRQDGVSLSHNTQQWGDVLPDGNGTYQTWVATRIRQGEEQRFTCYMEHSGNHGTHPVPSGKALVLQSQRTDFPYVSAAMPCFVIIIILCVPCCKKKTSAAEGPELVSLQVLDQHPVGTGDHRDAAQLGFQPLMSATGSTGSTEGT

T4: P. falciparum MSP-1 subunit p42 (plate-bound, isolated) (Plasmodium falciparum, UniProt Q8I0U8 1327-1699)
T4 construct: domain: p42
T4 sequence: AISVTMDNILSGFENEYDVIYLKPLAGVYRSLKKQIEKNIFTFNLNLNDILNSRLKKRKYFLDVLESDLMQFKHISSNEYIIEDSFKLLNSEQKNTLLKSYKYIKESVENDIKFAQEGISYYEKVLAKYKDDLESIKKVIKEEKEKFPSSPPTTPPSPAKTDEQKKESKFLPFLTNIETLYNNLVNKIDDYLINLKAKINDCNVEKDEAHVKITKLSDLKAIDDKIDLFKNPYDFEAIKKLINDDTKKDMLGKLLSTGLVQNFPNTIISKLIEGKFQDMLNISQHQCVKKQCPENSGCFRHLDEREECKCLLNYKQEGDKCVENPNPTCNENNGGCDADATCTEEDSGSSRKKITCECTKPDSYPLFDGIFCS

B1: anti-p42 G11 VHH (P. falciparum MSP-1 specific) (VHH)
VHH: QVQLVETGGGLVQAGGSLRLSCVVSGRSLILYGMGWFRQAPGKEREFVAGIVWNGGWTYYADSVKGRFTISRDTAKNTVYLQMNSLKPEDTAVYSCAAGPGDGRRRVAPAEYNYWGQGTQVTVSS
B2: anti-MICA VHH nanobody clone H3 (VHH)
VHH: QVQLVETGGGLVQAGGSLRLSCAASGRTFSSYAMGWFRQAPGKEREFVAGISWSGGSTYYGDSVKGRFTISRDNAKNTVYLLMNSLKPEDTAVYYCAADLVRSYGSSWPSLFQFRNPEDVQDGMDYWGKGTLVTVSS
B3: anti-p42 A6 VHH (P. falciparum MSP-1 specific) (VHH)
VHH: QVQLVESGGGLVQAGGSLRLSCAASARTFSYYGAAWFRQAPGKEREFVAAVSWNGDDTYYADSVKGRFTISRDNTKNTVSLQMNALKPEDTAVYYCEAAAYGRDWRQSANYVYWGQGTQVTVSS
B4: anti-MICA VHH nanobody clone A1 (VHH)
VHH: QVQLVESGGGLVQPGGSLRLSCAASGFTLDYYDIGWFRQAPGKEREGVSCITSSDGSTYYADSVKGRFTISRDNAKNTVYLQMNSLKPEDTAVYYCAADCTKPQWKSKTEAWGQGTQVTVSS
B5: anti-p83 B4 VHH (P. falciparum MSP-1 specific) (VHH)
VHH: QLQLVESGGGLAQAGGSLRLSCAASGRTSSTKPMGWFRQAPGLEREFVASISWLGGSTLYSDSVKGRFTISRDNAKNTVYLQMNSLKSEDTAVYYCAGGTSAYSGRDSSRYEYWGQGTQVTVSS
notes: also called anti-p84 B4

Assays:
[1] = biological target: T1, P. falciparum MSP-1 subunit p83 …; experiment: Western blot against PfMSP-1 subunits
[2] = biological target: T2, P. falciparum MSP-1 subunit p38 …; experiment: Western blot against PfMSP-1 subunits
[3] = biological target: T3, MICB expressed on transfected B16F10 …; experiment: flow cytometry of transfected B16F10 cells, biotinylated nanobody with streptavidin-PE
[4] = biological target: T4, P. falciparum MSP-1 subunit p42 …; experiment: Western blot against PfMSP-1 subunits

Row | Binder | binding result [1] | binding result [2] | binding result [3] | binding result [4]
1 | B1 | no binding | no binding | – | –
2 | B2 | – | – | no binding | –
3 | B3 | no binding | no binding | – | –
4 | B4 | – | – | no binding | –
5 | B5 | – | no binding | – | no binding
